US10323078B2, “Isolated peptides and fragments thereof from fibrinogen for use as drugs, particularly in skin inflammatory diseases” (Universite Paris Descartes, priority 2015, dated 2019)

B1: MKRMVSWSFHKLKTMKHLLLLLLCVFLVKSQGVNDNEEGFFSARGHRPLDKKREEAPSLRPAPPPISGGGYRARPAKAAATQKKVERKAPDAGGCLHADPDLGVLC (protein)
chain: MKRMVSWSFHKLKTMKHLLLLLLCVFLVKSQGVNDNEEGFFSARGHRPLDKKREEAPSLRPAPPPISGGGRARPAKAAATQKKVERKAPDAGGCLHADPDLGVLCMKRMVSWSFHKLKTMKHLLLLLLCVFLVKSQGVNDNEEGFFSARGHRPLDKKREEAPSLRPAPPPISGGGYRARPAKAAATQKKVERKAPDAGGCLHADPDLGVLC
modifications: GST fusion; fragment Fg1
notes: fragment of Bß chain of human fibrinogen having 106 amino acids; recombinant GST-fused peptide expressed in E. coli

Experiments:
Pfg = experiment: Western ligand blot with biotinylated Pfg; type: binding, Propionibacterium acnes; conditions: biotinylated Pfg 0.1 μg/ml
NHDK cells = experiment: IL-8 production by keratinocytes stimulated by peptidoglycanne (PGN); type: cell-based, human; conditions: NHDK pre-treated 24 h with 1.75 to 7 μM, then PGN 10 μg/ml
Description: FIG. 19: Dose-dependent inhibition of IL-8 production by keratinocyte pre-treated by small Fg1-generated peptides and stimulated by peptidoglycanne (PGN). NHDK cell were incubated for 24 h with recombinant peptide Fg1 (light gray bar) and Fg2 (dark gray bar) at concentrations ranging from 1.75 to 7 μM. Measurement of IL-8 production was realized by ELISA as described in Materials and Methods. Controls experiments were done with unstimulated NHDK cell (white bar) and HDF stimulated with PGN at 10 μg/ml (black bar). Data are means±S.D. of three separate experiments. Statistical significance is indicated by * (P<0.05), ** (P<0.01), *** (P<0.001), and **** (P<0.0001), respectively. […]
Human IL-1ß, IL-8, IL-12, hBD-2, and TNF-α protein concentration was measured in the supernatants of stimulated cells using various ELISA Set kits (Ready-Set-Go kit from eBioscience for acne experiments, and for psoriasis experiments the Duo set IL-8 kit from R&D Systems and the BD-2 Human Development (hBD-2) from Peprotech) according to the manufacturer's instructions. […] The optical density was determined at 450 nm at a wavelength correction of 540 nm.
The production of IL-8 was also measured NHDK cells stimulated by LTA, LPS and PGN, in presence or not of Fg1 or Fg2. […]

[1] = system: Pfg binding to fibrinogen; experiment: Inhibition of biotinylated Pfg binding to coated fibrinogen; parameters: species or system Propionibacterium acnes; conditions: biotinylated Pfg pretreated with increasing amount of recombinant peptide 1 h at 37° C.; fibrinogen coated 25 μg per well
Description: FIG. 9: Dose-dependent inhibition of biotinylated Pfg binding to fibrinogen by fibrinogen-derived peptide. Biotinylated PFg (0.4 mg) was pretreated with increasing amount of recombinant peptides Fg1 (♦), Fg2 (▪) or BSA as control (●) for 1 h at 37° C., and the binding activity to coated fibrinogen on polystyrene plate (25 μg per well) was evaluated. Results are expressed as mean±SD. Each point was done in quadruplet.
Since it has been shown that only Fg1 was able to recognize Pfg, biotinylated Pfg was pre-treated with various concentrations of purified Fg1 and tested its ability to recognize immobilized fibrinogen. Fg2 and BSA were used as neative controls (FIG. 9).

Molecule | Recognition by biotinylated Pfg after electrophoretic separation of fibrinogen (Pfg; 10 μg per lane, 10% SDS-PAGE) | Decrease of IL-8 production by PGN-stimulated cells (NHDK cells) | Recognition of GST-fused recombinant Bß fibrinogen fragments by biotinylated Pfg (Pfg; E. coli total protein after IPTG induction, 12.5% SDS-PAGE) | Inhibition of the recognition between Pfg and human fibrinogen [1]
human fibrinogen: purified commercial human fibrinogen (Sigma), glycoprotein hexamer of Aα, Bß and γ chains | recognized by Pfg |  |  | 
B1 |  | significantly decreases production of IL-8 | recognized | dramatically decreased
